Measurements as given in patent US20220204592A1.
Where a chain is given by its changes, count along the chain named. Like-named read-outs stand apart in the source and are kept apart here.

Experiments:
[1] = molecular target: H3 hemagglutinin of H3N2 strain X-31 (influenza A virus X-31 (H3N2)) (UniProt P03437); experiment: cell-based or functional assay
[2] = molecular target: H1 hemagglutinin (A/Puerto Rico/8/34) (influenza A virus A/Puerto Rico/8/34 (H1N1)) (UniProt P03452); experiment: cell-based or functional assay
[3] = molecular target: H3 hemagglutinin (A/New York/55/2004) (influenza A virus A/New York/55/2004 (H3N2)); experiment: ELISA on coated HA, relative Kd (4-parameter fit)
[4] = molecular target: H5 hemagglutinin (A/Vietnam/1203/2004) (influenza A virus A/Vietnam/1203/2004 (H5N1)); experiment: ELISA on coated HA, relative Kd (4-parameter fit)
[5] = molecular target: H3 hemagglutinin (A/Brisbane/10/2007) (influenza A virus A/Brisbane/10/2007 (H3N2)); experiment: ELISA on coated HA, relative Kd (4-parameter fit)
[6] = molecular target: H3 hemagglutinin (A/Wisconsin/67/2005) (influenza A virus A/Wisconsin/67/2005 (H3N2)); experiment: ELISA on coated HA, relative Kd (4-parameter fit)
[7] = molecular target: H9 hemagglutinin (A/Hong Kong/1073/99) (influenza A virus A/Hong Kong/1073/99 (H9)); experiment: ELISA on coated HA, relative Kd (4-parameter fit)
[8] = molecular target: H7 hemagglutinin (A/Netherlands/219/2003) (influenza A virus A/Netherlands/219/2003 (H7N7)); experiment: ELISA on coated HA, relative Kd (4-parameter fit)
[9] = molecular target: H3 hemagglutinin (A/Wyoming/03/2003) (influenza A virus A/Wyoming/03/2003 (H3N2)); experiment: ELISA on coated HA, relative Kd (4-parameter fit)
[10] = molecular target: H1 hemagglutinin (A/Solomon Islands/3/2006) (influenza A virus A/Solomon Islands/3/2006); experiment: ELISA on coated HA, relative Kd (4-parameter fit)
[11] = molecular target: H3 hemagglutinin (A/Brisbane/10/2007) (influenza A virus A/Brisbane/10/2007 (H3N2)); experiment: cell-based or functional assay
[12] = molecular target: H3 hemagglutinin (A/Wyoming/03/2003) (influenza A virus A/Wyoming/03/2003 (H3N2)); experiment: cell-based or functional assay
[13] = molecular target: H3 hemagglutinin (A/New York/55/2004) (influenza A virus A/New York/55/2004 (H3N2)); experiment: ELISA on coated HA
[14] = molecular target: H3 hemagglutinin (A/Perth/16/2006) (influenza A virus A/Perth/16/2006 (H3)); experiment: ELISA on coated HA
[15] = molecular target: H5 hemagglutinin (A/Vietnam/1203/2004) (influenza A virus A/Vietnam/1203/2004 (H5N1)); experiment: ELISA on coated HA
[16] = molecular target: H3 hemagglutinin (A/Brisbane/10/2007) (influenza A virus A/Brisbane/10/2007 (H3N2)); experiment: ELISA on coated HA
[17] = molecular target: H2 hemagglutinin (A/chicken/PA/2004) (influenza A virus A/chicken/PA/2004 (H2)); experiment: ELISA on coated HA
[18] = molecular target: H3 hemagglutinin (A/Uruguay/716/2007) (influenza A virus A/Uruguay/716/2007 (H3)); experiment: ELISA on coated HA
[19] = molecular target: H3 hemagglutinin (A/Moscow/10/1999) (influenza A virus A/Moscow/10/1999 (H3)); experiment: ELISA on coated HA
[20] = molecular target: H16 hemagglutinin (A/black headed gull/Mongolia/1756/2006) (influenza A virus A/black headed gull/Mongolia/1756/2006 (H16)); experiment: ELISA on coated HA
[21] = molecular target: H3 hemagglutinin (A/Wisconsin/67/2005) (influenza A virus A/Wisconsin/67/2005 (H3N2)); experiment: ELISA on coated HA
[22] = molecular target: H9 hemagglutinin (A/Hong Kong/1073/99) (influenza A virus A/Hong Kong/1073/99 (H9)); experiment: ELISA on coated HA
[23] = molecular target: H9 hemagglutinin (A/Guinea fowl/HK/WF10/99) (influenza A virus A/Guinea fowl/HK/WF10/99 (H9)); experiment: ELISA on coated HA
[24] = molecular target: HA from influenza B (B/Wisconsin/1/2010) (influenza B virus B/Wisconsin/1/2010); experiment: ELISA on coated HA
[25] = molecular target: H7 hemagglutinin (A/Netherlands/219/2003) (influenza A virus A/Netherlands/219/2003 (H7N7)); experiment: ELISA on coated HA
[26] = molecular target: H3 hemagglutinin (A/Wyoming/03/2003) (influenza A virus A/Wyoming/03/2003 (H3N2)); experiment: ELISA on coated HA
[27] = molecular target: H5 hemagglutinin (A/Vietnam/1203/2004) (influenza A virus A/Vietnam/1203/2004 (H5N1))
[28] = molecular target: H3 hemagglutinin (A/Brisbane/10/2007) (influenza A virus A/Brisbane/10/2007 (H3N2))
[29] = molecular target: H7 hemagglutinin (A/Netherlands/219/2003) (influenza A virus A/Netherlands/219/2003 (H7N7))
[30] = molecular target: H5 hemagglutinin (A/Vietnam/1203/2004) (influenza A virus A/Vietnam/1203/2004 (H5N1)); remark: listed apart in the source

B1: Ab 037 (antibody, V domains shown)
VH: EVQLLESGGGLVKPGQSLKLSCAASGFTFTSYAMHWVRQPPGKGLEWVAVVSYDGNYKYYADSVQGRFTISRDNSKNTLYLQMNSLRAEDTAVYYCAKDSRLRSLLYFEWLSQGYFNPWGQGTTLTVSS
VL: DIQMTQSPSSLSASVGDRVTITCRSSQSITFNYKNYLGWYQQKPGKAPKLLIYWGSYLESGVPSRFSGSGSGTDFTLTISSLQPEDFATYYCQQHYRTPPSFGQGTKVEIK
MIC [1]: 8 µg/mL | MIC [2]: 4 µg/mL | Kd [3]: 0.14 nM | Kd [4]: 0.059 nM | Kd [5]: 0.087 nM | Kd [6]: 0.313 nM | Kd [7]: 0.075 nM | Kd [8]: 0.114 nM | Kd [9]: 0.512 nM | Kd [10]: 0.075 nM

B2: Ab 038 (antibody, V domains shown)
VH: B1 VH with E1Q, S7T
VL: B1 VL
MIC [1]: 4 µg/mL | MIC [2]: 2 µg/mL | Kd [3]: 0.102 nM | Kd [4]: 0.087 nM | Kd [5]: < 0.025 nM | Kd [6]: 0.199 nM | Kd [7]: < 0.025 nM | Kd [8]: 0.119 nM | Kd [9]: 0.515 nM | Kd [10]: 0.064 nM

B3: Ab 004 (antibody, V domains shown)
VH: B1 VH with E1Q, S7T
VL: DIVMTQSPDTLAVTLGERATIQCKSSQTVTFNYKNYLAWYQQKPGQPPKLLIYWASTRESGVPDRFSGSGSGTDFTLTITSLQAEDVAVYYCQQHYRTPPSFGQGTKLDIK
MIC [1]: 6 µg/mL | MIC [2]: 12 µg/mL | Kd [3]: 0.066 nM | Kd [4]: 0.06 nM | Kd [5]: < 0.08 nM | Kd [6]: 0.713 nM | Kd [7]: 0.06 nM | Kd [8]: 0.073 nM | Kd [9]: 0.272 nM | Kd [10]: < 0.08 nM

B4: Ab 044 (antibody, V domains shown)
VH: B1 VH with E1Q, S7T
VL: B1 VL with N32D, G38A
EC50, Neutral Red (CPE inhibition) [11]: 0.3 µg/mL | EC50, Neutral Red (CPE inhibition) [12]: 6.8 µg/mL | Kd [13]: < 0.5 nM | Kd [14]: < 0.5 nM | Kd [15]: < 0.5 nM | Kd [16]: < 0.5 nM | Kd [17]: < 0.5 nM | Kd [18]: < 0.5 nM | Kd [19]: < 0.5 nM | Kd [20]: < 0.5 nM | Kd [21]: < 0.5 nM | Kd [22]: < 0.5 nM | Kd [23]: < 0.5 nM | Kd [24]: < 0.5 nM | Kd [25]: < 0.5 nM | Kd [26]: < 0.5 nM

B5: Ab 005 (antibody, V domains shown)
VH: B1 VH with E1Q, S7T
VL: B3 VL with L11V, L15V, Q22N, T80S
MIC [1]: 10 µg/mL | MIC [2]: 10 µg/mL | Kd [3]: 0.065 nM | Kd [4]: 0.038 nM | Kd [5]: 0.052 nM | Kd [6]: 1.09 nM | Kd [7]: 0.035 nM | Kd [8]: 0.064 nM | Kd [9]: 0.311 nM | Kd [10]: < 0.08 nM

B6: Ab 031 (antibody, V domains shown)
VH: B1 VH
VL: B1 VL with G38A
MIC [1]: 20 µg/mL | MIC [2]: 1 µg/mL | Kd [3]: 0.059 nM | Kd [4]: < 0.025 nM | Kd [5]: 0.068 nM | Kd [6]: 0.253 nM | Kd [7]: < 0.025 nM | Kd [8]: 0.091 nM | Kd [9]: 0.331 nM | Kd [10]: < 0.025 nM

B7: Ab 032 (antibody, V domains shown)
VH: B1 VH with E1Q, S7T
VL: B1 VL with G38A
kon [27]: 988000 M⁻¹ s⁻¹ | Kd [28]: 0.234 nM | koff [28]: 0.000376 s⁻¹ | kon [28]: 1.61e+06 M⁻¹ s⁻¹ | Kd [29]: 0.145 nM | koff [29]: 0.000161 s⁻¹ | kon [29]: 1.13e+06 M⁻¹ s⁻¹ | koff [30]: < 5e-06 s⁻¹ | Kd [3]: 0.094 nM | Kd [4]: < 0.025 nM | Kd [5]: < 0.025 nM | Kd [6]: 0.208 nM | Kd [7]: 0.079 nM | Kd [8]: 0.106 nM | Kd [9]: 0.262 nM
